Data: article PMC3747146 (PLoS ONE, 2013)
Where a chain is given by its changes, count along the chain named. Numbers in names are those of the source.

B1: MALT1(Casp-like), wildtype isolated protease domain (aa 333-566) (domain or fragment, UniProt Q9UDY8 333-566, looked up)
chain: QTTDQPLAKDKVALLIGNMNYREHPKLKAPLVDVYELTNLLRQLDFKVVSLLDLTEYEMRNAVDEFLLLLDKGVYGLLYYAGHGYENFGNSFMVPVDAPNPYRSENCLCVQNILKLMQEKETGLNVFLLDMCRKRNDYDDTIPILDALKVTANIVFGYATCQGAEAFEIQHSGLANGIFMKFLKDRLLEDKKITVLLDEVAEDMGKCHLTKGKQALEIRSSLSEKRALTDPIQG
notes: MALT1 (paracaspase), isolated protease (caspase-like) domain, aa 333-566; also called Casp-like construct; MALT1 caspase-like domain; source: E. coli BL21, GST fusion purified on glutathione-Sepharose, released with PreScission enzyme
B2: MALT1(ΔNT), wildtype protease domain and C-terminal extension (aa 333-824) (domain or fragment, UniProt Q9UDY8 333-824, looked up)
chain: QTTDQPLAKDKVALLIGNMNYREHPKLKAPLVDVYELTNLLRQLDFKVVSLLDLTEYEMRNAVDEFLLLLDKGVYGLLYYAGHGYENFGNSFMVPVDAPNPYRSENCLCVQNILKLMQEKETGLNVFLLDMCRKRNDYDDTIPILDALKVTANIVFGYATCQGAEAFEIQHSGLANGIFMKFLKDRLLEDKKITVLLDEVAEDMGKCHLTKGKQALEIRSSLSEKRALTDPIQGTEYSAESLVRNLQWAKAHELPESMCLKFDCGVQIQLGFAAEFSNVMIIYTSIVYKPPEIIMCDAYVTDFPLDLDIDPKDANKGTPEETGSYLVSKDLPKHCLYTRLSSLQKLKEHLVFTVCLSYQYSGLEDTVEDKQEVNVGKPLIAKLDMHRGLGRKTCFQTCLMSNGPYQSSAATSGGAGHYHSLQDPFHGVYHSHPGNPSNVTPADSCHCSRTPDAFISSFAHHASCHFSRSNVPVETTDEIPFSFSDRLRISEK
notes: MALT1 (paracaspase), protease domain and C-terminal extension, aa 333-824; also called ΔNT construct; source: E. coli BL21, GST fusion purified on glutathione-Sepharose, released with PreScission enzyme
B3: MALT1(ΔNT) E549A, protease domain and C-terminal extension (aa 333-824) (domain or fragment, UniProt Q9UDY8 333-824, looked up)
chain: B2 chain with E217A
notes: MALT1 (paracaspase), protease domain and C-terminal extension, aa 333-824, with E549A; source: E. coli BL21, GST fusion purified on glutathione-Sepharose, released with PreScission enzyme

Target: the molecule itself
Assay: SEC; Superdex 200 on an ÄKTA FPLC at 4°C, PBS with 10% glycerol (pH 7.4), flow 0.35 ml/min; recombinant proteins released from GST with PreScission

| Protein | stoichiometry N | binding result |
| --- | --- | --- |
| B1 | 2 |  |
| B2 |  | binds |
| B3 |  | binds |
